# Laboratory results from the RNAGym collection of RNA variant scans (doi:10.1093/molbev/msab373).
# B1: Azoarcus group I ribozyme (parent)
# chain: GUGCCUUGCGCCGGGAAACCACGCAAGGGAUGGUGUCAAAUUCGGCGAAACCUAAGCGCCCGCCCGGGCGUAUGGCAACGCCGAGCCAAGCUUCGGCGCCUGCGCCGAUGAAGGUGUAGAGACUAGACGGCACCCACCUAAGGCAAACGCUAUGGUGAAGGCAUAGUCCAGGGAGUGGCGAAAGUCACACAAACCGG
# Variants of: B1
# Experiment: reverse-splicing fitness (ratio to wild type); higher = more active; in vitro selection; Mg2+ level not given
# In short: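 An in vitro group I ribozyme library with randomized positions was T7-transcribed and gel-purified. In triplicate, 10 pmol RNA in EPPS pH 7.5 was reacted with 50 pmoles of a 30-nt RNA substrate for 1 h at 37 °C across several added MgCl2 levels (1–48 mM), then stopped with EDTA. Products were reverse transcribed from a substrate-complementary primer, PCR-amplified and sequenced (HiSeq 4000). Fitness is a variant's read proportion after selection over that before, normalised to wild type.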
row,Variant,reverse-splicing fitness
1,C82A A111C A145G C150A,0.0316
2,C82A A111C A145G C150A C169A,0.011
3,C82A A111C A145G C150A C169A U176A,0.0172
4,C82A A111C A145G C150A C169A U176C,0.0191
5,C82A A111C A145G C150A C169A U176G,0.0091
6,C82A A111C A145G C150A C169G,0.00824
7,C82A A111C A145G C150A C169G U176A,0.0152
8,C82A A111C A145G C150A C169G U176C,0.0253
9,C82A A111C A145G C150A C169G U176G,0.0087
10,C82A A111C A145G C150A C169U,0.0111
11,C82A A111C A145G C150A C169U U176A,0.0149
12,C82A A111C A145G C150A C169U U176C,0.0158
13,C82A A111C A145G C150A C169U U176G,0.00882
14,C82A A111C A145G C150A U176A,0.0153
15,C82A A111C A145G C150A U176C,0.0335
16,C82A A111C A145G C150A U176G,0.00922
17,C82A A111C A145G C150G,0.0238
18,C82A A111C A145G C150G C169A,0.00852
19,C82A A111C A145G C150G C169A U176A,0.0119
20,C82A A111C A145G C150G C169A U176C,0.0134
21,C82A A111C A145G C150G C169A U176G,0.00877

row,Variant,reverse-splicing fitness
1,C82A A111C A145G C150G C169G,0.00662
2,C82A A111C A145G C150G C169G U176A,0.00988
3,C82A A111C A145G C150G C169G U176C,0.0128
4,C82A A111C A145G C150G C169G U176G,0.00568
5,C82A A111C A145G C150G C169U,0.00803
6,C82A A111C A145G C150G C169U U176A,0.0112
7,C82A A111C A145G C150G C169U U176C,0.0116
8,C82A A111C A145G C150G C169U U176G,0.00666
9,C82A A111C A145G C150G U176A,0.00936
10,C82A A111C A145G C150G U176C,0.0173
11,C82A A111C A145G C150G U176G,0.00607
12,C82A A111C A145G C150U,0.174
13,C82A A111C A145G C150U C169A,0.0103
14,C82A A111C A145G C150U C169A U176A,0.0141
15,C82A A111C A145G C150U C169A U176C,0.0148
16,C82A A111C A145G C150U C169A U176G,0.00833
17,C82A A111C A145G C150U C169G,0.00915
18,C82A A111C A145G C150U C169G U176A,0.0115
19,C82A A111C A145G C150U C169G U176C,0.0162
20,C82A A111C A145G C150U C169G U176G,0.00687
21,C82A A111C A145G C150U C169U,0.0119

row,Variant,reverse-splicing fitness
1,C82A A111C A145G C150U C169U U176A,0.0138
2,C82A A111C A145G C150U C169U U176C,0.0143
3,C82A A111C A145G C150U C169U U176G,0.00766
4,C82A A111C A145G C150U U176A,0.0494
5,C82A A111C A145G C150U U176C,0.086
6,C82A A111C A145G C150U U176G,0.0141
7,C82A A111C A145G C169A,0.0103
8,C82A A111C A145G C169A U176A,0.0211
9,C82A A111C A145G C169A U176C,0.029
10,C82A A111C A145G C169A U176G,0.0069
11,C82A A111C A145G C169G,0.00878
12,C82A A111C A145G C169G U176A,0.0221
13,C82A A111C A145G C169G U176C,0.0335
14,C82A A111C A145G C169G U176G,0.00836
15,C82A A111C A145G C169U,0.0142
16,C82A A111C A145G C169U U176A,0.0177
17,C82A A111C A145G C169U U176C,0.0149
18,C82A A111C A145G C169U U176G,0.0073
19,C82A A111C A145G U176A,0.0768
20,C82A A111C A145G U176C,0.0992
21,C82A A111C A145G U176G,0.017

row,Variant,reverse-splicing fitness
1,C82A A111C A145U,0.229
2,C82A A111C A145U C150A,0.0227
3,C82A A111C A145U C150A C169A,0.00982
4,C82A A111C A145U C150A C169A U176A,0.0148
5,C82A A111C A145U C150A C169A U176C,0.0143
6,C82A A111C A145U C150A C169A U176G,0.00891
7,C82A A111C A145U C150A C169G,0.00915
8,C82A A111C A145U C150A C169G U176A,0.014
9,C82A A111C A145U C150A C169G U176C,0.022
10,C82A A111C A145U C150A C169G U176G,0.0087
11,C82A A111C A145U C150A C169U,0.0123
12,C82A A111C A145U C150A C169U U176A,0.0155
13,C82A A111C A145U C150A C169U U176C,0.0167
14,C82A A111C A145U C150A C169U U176G,0.00853
15,C82A A111C A145U C150A U176A,0.0127
16,C82A A111C A145U C150A U176C,0.0205
17,C82A A111C A145U C150A U176G,0.00868
18,C82A A111C A145U C150G,0.0181
19,C82A A111C A145U C150G C169A,0.0091
20,C82A A111C A145U C150G C169A U176A,0.0098
